For this assay, the target named is CD161 (human). In words: other (literature value, Kamishikiryo et al 2011).
Chain of CD161 (human) (chain, as listed by the source): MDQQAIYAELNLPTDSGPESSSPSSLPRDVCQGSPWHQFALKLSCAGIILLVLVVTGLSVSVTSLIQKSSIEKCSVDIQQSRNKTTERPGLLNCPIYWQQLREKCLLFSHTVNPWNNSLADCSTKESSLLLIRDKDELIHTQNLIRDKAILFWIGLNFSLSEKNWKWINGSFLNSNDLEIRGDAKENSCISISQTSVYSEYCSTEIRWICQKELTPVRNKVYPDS

B1: CLEC2D (protein)
chain: RANCHQEPSVCLQAACPESWIGFQRKCFYFSDDTKNWTSSQRFCDSQDADLAQVESFQELNFLLRYKGPSDHWIGLSREQGQPWKWINGTEWTRQFPILGAGECAYLNDKGASSARHYTERKWICSKSDIHV
As a reminder, the Kd is the concentration at which binding is half-saturated. As for B1, the affinity, expressed as Kd, was 48 µM.

The values above are taken from US20260308262 (published 2026).
